Molecular target: T1, mouse IL-1α (mouse, UniProt P01582 115-270)
T1 sequence (looked up): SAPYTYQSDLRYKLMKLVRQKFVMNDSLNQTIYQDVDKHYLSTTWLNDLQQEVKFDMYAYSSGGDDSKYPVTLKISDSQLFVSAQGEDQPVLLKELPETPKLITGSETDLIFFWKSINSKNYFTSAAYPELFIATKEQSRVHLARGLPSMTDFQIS
Test: cell-based or functional assay

- fold decrease of potency against the parental anti-mIL-1α mAb: 10 fold
B1: mIL-1α/β DVD-Ig (bispecific antibody, mouse IgG2a, kappa)
heavy: EVQLQQSGPELVKPGTSVKMSCKTSGYTFTSYVMHWVKQKPGQGLEWIGYIIPYNDNTKYNEKFKGKATLTSDKSSSTAYMELSSLTSEDSAVYYCARRNEYYGSSFFDYWGQGTTLTVSSAKTTAPSVYPLAPQVILKESGPGILQPSQTLSLTCSFSGFSLSTYGTAVNWIRQPSGKGLEWLAQIGSDDRKLYNPFLKSRITLSEDTSNSQVFLKITSVDTEDSATYYCANGVMEYWGLGTSVTVSSAKTTAPSVYPLAPVCGDTTGSSVTLGCLVKGYFPEPVTLTWNSGSLSSGVHTFPAVLQSDLYTLSSSVTVTSSTWPSQSITCNVAHPASSTKVDKKIEPRGPTIKPCPPCKCPAPNLLGGPSVFIFPPKIKDVLMISLSPIVTCVVVDVSEDDPDVQISWFVNNVEVHTAQTQTHREDYNSTLRVVSALPIQHQDWMSGKEFKCKVNNKDLPAPIERTISKPKGSVRAPQVYVLPPPEEEMTKKQVTLTCMVTDFMPEDIYVEWTNNGKTELNYKNTEPVLDSDGSYFMYSKLRVEKKNWVERNSYSCSVVHEGLHNHHTTKSFSRTPGK
light: DIQMTQSPASLSASVGETVTITCRGSGILHNYLVWYQQKQGKSPQLLVYSAKILADGVPSRFSGSGSGTQYSLKINSLQPEDFGSYYCQHFWSTPFTFGSGTKLEIKRADAAPTVSIFPPSIVMTQTPKFLLVSAGDRVTITCKASQSVNHDVAWYQQMPGQSPKLLIYFASNRYTGVPDRFTGSGYGTDFTFTISTVQAEDLAVYFCQQDYSSPYTFGGGTKLEIKRADAAPTVSIFPPSSEQLTSGGASVVCFLNNFYPKDINVKWKIDGSERQNGVLNSWTDQDSKDSTYSMSSTLTLTKDEYERHNSYTCEATHKTSTSPIVKSFNRNEC

— patent US20090215992A1 (published 2009)
